From IntAct's records for PubMed 15644415

B1: 1-phosphatidylinositol 4,5-bisphosphate phosphodiesterase gamma-2 (Homo sapiens), P16885 (parent)
chain: MSTTVNVDSLAEYEKSQIKRALELGTVMTVFSFRKSTPERRTVQVIMETRQVAWSKTADKIEGFLDIMEIKEIRPGKNSKDFERAKAVRQKEDCCFTILYGTQFVLSTLSLAADSKEDAVNWLSGLKILHQEAMNASTPTIIESWLRKQIYSVDQTRRNSISLRELKTILPLINFKVSSAKFLKDKFVEIGAHKDELSFEQFHLFYKKLMFEQQKSILDEFKKDSSVFILGNTDRPDASAVYLHDFQRFLIHEQQEHWAQDLNKVRERMTKFIDDTMRETAEPFLFVDEFLTYLFSRENSIWDEKYDAVDMQDMNNPLSHYWISSSHNTYLTGDQLRSESSPEAYIRCLRMGCRCIELDCWDGPDGKPVIYHGWTRTTKIKFDDVVQAIKDHAFVTSSFPVILSIEEHCSVEQQRHMAKAFKEVFGDLLLTKPTEASADQLPSPSQLREKIIIKHKKLGPRGDVDVNMEDKKDEHKQQGELYMWDSIDQKWTRHYCAIADAKLSFSDDIEQTMEEEVPQDIPPTELHFGEKWFHKKVEKRTSAEKLLQEYCMETGGKDGTFLVRESETFPNDYTLSFWRSGRVQHCRIRSTMEGGTLKYYLTDNLTFSSIYALIQHYRETHLRCAEFELRLTDPVPNPNPHESKPWYYDSLSRGEAEDMLMRIPRDGAFLIRKREGSDSYAITFRARGKVKHCRINRDGRHFVLGTSAYFESLVELVSYYEKHSLYRKMRLRYPVTPELLERYNMERDINSLYDVSRMYVDPSEINPSMPQRTVKALYDYKAKRSDELSFCRGALIHNVSKEPGGWWKGDYGTRIQQYFPSNYVEDISTADFEELEKQIIEDNPLGSLCRGILDLNTYNVVKAPQGKNQKSFVFILEPKQQGDPPVEFATDRVEELFEWFQSIREITWKIDTKENNMKYWEKNQSIAIELSDLVVYCKPTSKTKDNLENPDFREIRSFVETKADSIIRQKPVDLLKYNQKGLTRVYPKGQRVDSSNYDPFRLWLCGSQMVALNFQTADKYMQMNHALFSLNGRTGYVLQPESMRTEKYDPMPPESQRKILMTLTVKVLGARHLPKLGRSIACPFVEVEICGAEYDNNKFKTTVVNDNGLSPIWAPTQEKVTFEIYDPNLAFLRFVVYEEDMFSDPNFLAHATYPIKAVKSGFRSVPLKNGYSEDIELASLLVFCEMRPVLESEEELYSSCRQLRRRQEELNNQLFLYDTHQNLRNANRDALVKEFSVNENQLQLYQEKCNKRLREKRVSNSKFYS
partner: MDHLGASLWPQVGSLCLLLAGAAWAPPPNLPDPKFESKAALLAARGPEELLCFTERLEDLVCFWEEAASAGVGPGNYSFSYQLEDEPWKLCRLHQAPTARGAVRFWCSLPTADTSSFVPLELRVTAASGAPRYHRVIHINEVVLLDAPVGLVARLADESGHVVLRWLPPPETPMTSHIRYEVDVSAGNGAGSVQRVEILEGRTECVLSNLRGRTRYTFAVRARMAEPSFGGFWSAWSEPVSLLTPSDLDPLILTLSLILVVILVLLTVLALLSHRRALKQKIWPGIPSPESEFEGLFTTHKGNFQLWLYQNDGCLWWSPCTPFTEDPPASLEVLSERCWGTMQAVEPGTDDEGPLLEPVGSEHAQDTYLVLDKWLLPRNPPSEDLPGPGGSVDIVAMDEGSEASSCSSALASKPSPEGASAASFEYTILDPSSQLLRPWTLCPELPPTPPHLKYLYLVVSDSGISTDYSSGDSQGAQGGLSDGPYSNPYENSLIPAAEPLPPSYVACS
B2: Erythropoietin receptor (Homo sapiens), P19235 (parent)
chain: B1 partner
partner: B1 chain
B3: Erythropoietin receptor (Homo sapiens), P19235 (parent)
chain: B1 partner
partner: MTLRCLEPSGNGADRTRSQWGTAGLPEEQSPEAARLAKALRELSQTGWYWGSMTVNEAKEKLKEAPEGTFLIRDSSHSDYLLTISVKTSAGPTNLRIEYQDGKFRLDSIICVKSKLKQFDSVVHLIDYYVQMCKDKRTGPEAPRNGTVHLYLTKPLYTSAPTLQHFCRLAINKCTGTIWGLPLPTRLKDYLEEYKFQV
B4: Erythropoietin receptor (Homo sapiens), P19235 (parent)
chain: B1 partner
partner: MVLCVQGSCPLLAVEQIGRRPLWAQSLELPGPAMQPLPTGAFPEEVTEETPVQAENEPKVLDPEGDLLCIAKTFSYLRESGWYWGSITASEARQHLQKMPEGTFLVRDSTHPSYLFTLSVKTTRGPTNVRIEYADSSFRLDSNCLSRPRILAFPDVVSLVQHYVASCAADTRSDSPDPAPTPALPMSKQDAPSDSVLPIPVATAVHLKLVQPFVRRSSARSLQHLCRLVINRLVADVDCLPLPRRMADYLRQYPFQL

Variants of: B1
Details: with epor_human EPOR

Row | effect of a mutation on the interaction | Variant
1 | decreasing interaction | K367F

Variants of: B2
Details: with plcg2_human PLCG2, P16885

Row | effect of a mutation on the interaction | Variant
2 | decreasing interaction | MDHLGASLWPQVGSLCLLLAGAAWAPPPNLPDPKFESKAALLAARGPEELLCFTERLEDLVCFWEEAASAGVGPGNYSFSYQLEDEPWKLCRLHQAPTARGAVRFWCSLPTADTSSFVPLELRVTAASGAPRYHRVIHINEVVLLDAPVGLVARLADESGHVVLRWLPPPETPMTSHIRYEVDVSAGNGAGSVQRVEILEGRTECVLSNLRGRTRYTFAVRARMAEPSFGGFWSAWSEPVSLLTPSDLDPLILTLSLILVVILVLLTVLALLSHRRALKQKIWPGIPSPESEFEGLFTTHKGNFQLWLYQNDGCLWWSPCTPFTEDPPASLEVLSERCWGTMQAVEPGTDDEGPLLEPVGSEHAQDTYLVLDKWLLPRNPPSEDLPGPGGSVDIVAMDEGSEASSCSSALASKPSPEGASAASFEYTILDPSSQLLRPWTLCPELPPTPPHLKYLYLVVSDSGISTDYSSGDSQGAQGGLSDGPYSNPYENSLIPAAEPLPPSFVACS [Y504F]
3 | decreasing interaction | MDHLGASLWPQVGSLCLLLAGAAWAPPPNLPDPKFESKAALLAARGPEELLCFTERLEDLVCFWEEAASAGVGPGNYSFSYQLEDEPWKLCRLHQAPTARGAVRFWCSLPTADTSSFVPLELRVTAASGAPRYHRVIHINEVVLLDAPVGLVARLADESGHVVLRWLPPPETPMTSHIRYEVDVSAGNGAGSVQRVEILEGRTECVLSNLRGRTRYTFAVRARMAEPSFGGFWSAWSEPVSLLTPSDLDPLILTLSLILVVILVLLTVLALLSHRRALKQKIWPGIPSPESEFEGLFTTHKGNFQLWLYQNDGCLWWSPCTPFTEDPPASLEVLSERCWGTMQAVEPGTDDEGPLLEPVGSEHAQDTYLVLDKWLLPRNPPSEDLPGPGGSVDIVAMDEGSEASSCSSALASKPSPEGASAASFEYTILDPSSQLLRPWTLCPELPPTPPHLKYLFLVVSDSGISTDYSSGDSQGAQGGLSDGPYSNPYENSLIPAAEPLPPSYVACS [Y456F]

Variants of: B3
Details: with socs2_mouse Socs2, O35717

Row | effect of a mutation on the interaction | Variant
4 | decreasing interaction | MDHLGASLWPQVGSLCLLLAGAAWAPPPNLPDPKFESKAALLAARGPEELLCFTERLEDLVCFWEEAASAGVGPGNYSFSYQLEDEPWKLCRLHQAPTARGAVRFWCSLPTADTSSFVPLELRVTAASGAPRYHRVIHINEVVLLDAPVGLVARLADESGHVVLRWLPPPETPMTSHIRYEVDVSAGNGAGSVQRVEILEGRTECVLSNLRGRTRYTFAVRARMAEPSFGGFWSAWSEPVSLLTPSDLDPLILTLSLILVVILVLLTVLALLSHRRALKQKIWPGIPSPESEFEGLFTTHKGNFQLWLYQNDGCLWWSPCTPFTEDPPASLEVLSERCWGTMQAVEPGTDDEGPLLEPVGSEHAQDTYLVLDKWLLPRNPPSEDLPGPGGSVDIVAMDEGSEASSCSSALASKPSPEGASAASFEFTILDPSSQLLRPWTLCPELPPTPPHLKYLYLVVSDSGISTDYSSGDSQGAQGGLSDGPYSNPYENSLIPAAEPLPPSYVACS [Y426F]

Variants of: B4
Details: with cish_mouse Cish

Row | effect of a mutation on the interaction | Variant
5 | decreasing interaction | MDHLGASLWPQVGSLCLLLAGAAWAPPPNLPDPKFESKAALLAARGPEELLCFTERLEDLVCFWEEAASAGVGPGNYSFSYQLEDEPWKLCRLHQAPTARGAVRFWCSLPTADTSSFVPLELRVTAASGAPRYHRVIHINEVVLLDAPVGLVARLADESGHVVLRWLPPPETPMTSHIRYEVDVSAGNGAGSVQRVEILEGRTECVLSNLRGRTRYTFAVRARMAEPSFGGFWSAWSEPVSLLTPSDLDPLILTLSLILVVILVLLTVLALLSHRRALKQKIWPGIPSPESEFEGLFTTHKGNFQLWLYQNDGCLWWSPCTPFTEDPPASLEVLSERCWGTMQAVEPGTDDEGPLLEPVGSEHAQDTYLVLDKWLLPRNPPSEDLPGPGGSVDIVAMDEGSEASSCSSALASKPSPEGASAASFEYTILDPSSQLLRPWTLCPELPPTPPHLKFLYLVVSDSGISTDYSSGDSQGAQGGLSDGPYSNPYENSLIPAAEPLPPSYVACS [Y454F]

Variants of: B4
Details: with cish_mouse Cish
Remark: another data set of the same source

Row | effect of a mutation on the interaction | Variant
6 | decreasing interaction | MDHLGASLWPQVGSLCLLLAGAAWAPPPNLPDPKFESKAALLAARGPEELLCFTERLEDLVCFWEEAASAGVGPGNYSFSYQLEDEPWKLCRLHQAPTARGAVRFWCSLPTADTSSFVPLELRVTAASGAPRYHRVIHINEVVLLDAPVGLVARLADESGHVVLRWLPPPETPMTSHIRYEVDVSAGNGAGSVQRVEILEGRTECVLSNLRGRTRYTFAVRARMAEPSFGGFWSAWSEPVSLLTPSDLDPLILTLSLILVVILVLLTVLALLSHRRALKQKIWPGIPSPESEFEGLFTTHKGNFQLWLYQNDGCLWWSPCTPFTEDPPASLEVLSERCWGTMQAVEPGTDDEGPLLEPVGSEHAQDTYLVLDKWLLPRNPPSEDLPGPGGSVDIVAMDEGSEASSCSSALASKPSPEGASAASFEFTILDPSSQLLRPWTLCPELPPTPPHLKYLYLVVSDSGISTDYSSGDSQGAQGGLSDGPYSNPYENSLIPAAEPLPPSYVACS [Y426F]
